The results in this text go back to US9856300B2, “Dpy-30 binding peptides and methods of use” (Marquette University, priority 2011, dated 2018).

No end group written: not given here.

Assay [1] addresses T1, Dpy-30 (Homo sapiens, UniProt Q9C005). The experiment in a line: Ni-NTA pulldown of GST-hAsh2 peptides with His-Dpy-30. The assay is classed as binding. Further details: Dpy-30 fragments, full length or a.a.#49-99, were amplified using purchased IMAGE cDNA clone #4081996 as a template; made in house; host or cells: E. coli BL21(DE3); key to co-purified with Dpy-30: “+” or “−” indicates if the peptides were or were not evidently co-purified with Dpy-30; “+” or “−” indicates if the peptides were or were not evidently co-purified with Dpy-30. The text has this:
To test this, we performed pull down assays for His-Dpy-30 and GST-hAsh2593-623. The human Ash2 fragment contains a helix with two typical and three atypical ΦΦXX motifs. The hAsh2 DNA was fused downstream to GST DNA by PCR and the product was cloned into an expression vector. Three clones—#9 and #14 with the expected in-frame fusion and #6 with an out-of-frame fusion—were expressed in bacteria. Their extract was mixed with equal volume of bacterial extract with His-Dpy-30; and the mixture was subjected to Ni-NTA purification. […] Thus hAsh2593-623 interacts with Dpy-30 specifically.
Table 3 illustrates the protein sequences of hAsh2's C-terminal region (hAsh2593-623) and its variants, where “+” or “−” indicates if the peptides were or were not evidently co-purified with Dpy-30. The shorter fusion protein GST-hAsh2593-617 that terminated right after the last possible ΦΦXX-like motif, VETE (SEQ ID NO:35), in the helix was also co-purified with His-Dpy-30 (FIG. 11B, arrow and double arrowheads), no matter expressed separately or co-expressed. Both polypeptides were depleted in the flow through of Ni-NTA matrix (Post in FIG. 11B) and retained in the eluate.
All expression constructs were transformed or co-transformed into BL21(DE3) cells. The colonies were selected based on the antibiotic-resistant gene in each plasmid. The cultures were induced with 1 mM IPTG overnight at 18° C. The cell pellet from a 5-ml culture was resuspended in 750-μl lysis buffer supplemented with Complete Mini EDTA-free protease inhibitor cocktail tablets (Roche) and the suspension was sonicated on ice using Branson digital Sonifier until clarified (Emerson Industrial Automation). The sonicated mixtures were centrifuged at 4° C., 12,000 rpm for 25 min. The supernatant or combinations of supernatants as indicated were incubated with ˜100 μl Ni-NTA (Qiagen or Clontech) or Glutathione Sepharose 4B (Amersham Biosciences) for 1 hour at room temperature. The matrix was subsequently washed as instructed by manufacturers, unless indicated otherwise.
Bacterial extract, flow through and eluate in 1× Laemmli samples buffer were boiled for 5 min. In general, 10 μl samples were loaded in each lane in 4-20% precast acrylamide gels (Bio-Rad or DGEL Electrosystem, Canada) or 14% manually cast gels.

Another assay addresses T2, RIIα D/D (a.a.#1-64) (Mus musculus, UniProt P12367, S2G).
T2 construct: made in house; host or cells: E. coli BL21(DE3); template pRSETB-RIIα from Dr. Susan Taylor
The assay is described as follows: Ni-NTA pulldown with His-RIIα D/D. The settings on record: 300 mM NaCl buffers. The assay is classed as binding. The text has this: (§1) Most AHs are mono-specific to RIIα D/D except a few that are either RIα D/D-specific (Angelo and Rubin, 1998; Means et al., 2011; Welch et al., 2010) or dual specific, binding to both (Huang et al., 1997; Jarnaess et al., 2008). To test if hAsh2 AH can cross-react with PKA's D/D, we created constructs expressing the D/D domain and the flanking sequences from bovine RIα (a.a.#1-81) and mouse RIIα (a.a.#1-64). His-RIα D/D or His-RIIα D/D was co-expressed with GST-RSP396-180, which contains the AH (RSP3160-178) that bind RII in the overlay assay (Gaillard et al., 2001). […] In the eluate, the ratio of RSP396-180-RIα D/D was the lowest, followed by RSP396-180-RIIα D/D and then RSP396-180-RIIα D/D from RSP7, the de facto partner of RSP3. Although RSP396-180 in the extract was also the most concentrated when co-expressed with RSP7's RIIα, this likely is due to effective binding of RSP7's D/D, protecting GST-RSP396-180 from proteolysis, which occurred when GST-RSP396-180 was expressed by itself (not shown). Similarly, when co-expressed with GST-hAsh2593-623, RIα D/D and RIIα D/D were depleted in the flow through but few polypeptides, especially RIIα D/D, were present in the eluate (FIG. 12A, right panel, compare Extract, Post and Elute). […]

The target in another assay is T3, RIα D/D (a.a.#1-81) (Bos taurus, UniProt P00514).
T3 construct: made in house; host or cells: E. coli BL21(DE3); template pRSETB-RIα from Dr. Susan Taylor
The assay is described as follows: Ni-NTA pulldown with His-RIα D/D. The format is binding, bovine. The settings on record: 300 mM NaCl buffers.
Source text: as §1, with “shown).” for “shown). Similarly, when co-expressed with GST-hAsh2593-623, RIα D/D and RIIα D/D were depleted in the flow through but few polypeptides, especially RIIα D/D, were present in the eluate (FIG. 12A, right panel, compare Extract, Post and Elute).”
Although both RIα D/D and Dpy-30 D/D have a common α0 helix (Wang et al., 2009), GST-hAsh2593-623 cross reacted with RIα D/D poorly. […] To test this, the samples from repeated experiments were analyzed in the non-reducing SDS-PAGE. […]

The target in assay [2] is T1, Dpy-30. The assay is described as follows: Ni-NTA pulldown of GST-tagged RSP3 peptides with His-tagged human Dpy-30 protein. The assay is classed as binding. Further details: made in house; host or cells: E. coli BL21(DE3), co-expressed with the GST-RSP3 peptides. The settings on record: full-length human His-Dpy-30 co-expressed with GST-RSP3 peptide. The text has this:
(§2) Based on the phenotypes of RSP3 transgenic strains (FIG. 4), an in vitro approach was taken to test that RSP3269-316 contains a Dpy-30 domain binding site. RIIa-binding AHs are 14-18-a.a. long. Some of AHs are clearly comprised of ΦΦXX repeats in which the first two residues are hydrophobic residues (Φ) positioned to interact with complementary residues at the binding grooves of the RIIa domain (Burns-Hamuro et al., 2003; Kinderman et al., 2006; Sarma et al., 2010), whereas for the other RIIa-binding AHs the repeats are not as evident (Gold et al., 2006; Gaillard et al., 2001). Typical ΦΦXX repeats were noted within the Dpy-30 binding fragment in BIG1 at the trans-Golgi network but were not tested yet (Xia et al., 2010). For RSP3269-316, typical and degenerate ΦΦXX repeats are present throughout this region, thus the precise Dpy-30 binding site was determined objectively by Ni-NTA pulldown. As a control, the His-tagged RIIa domain from RSP7 was co-expressed with the GST-tagged RSP396-180 that harbors AHR at a.a.#161-178 (Gaillard et al., 2001; FIG. 3) and both polypeptides were co-purified by Ni-NTA (FIG. 7A). Various Dpy-30 domain containing RSP2 and RSP23 polypeptides were tested but were not compatible for this assay due to poor expression or precipitation propensity. Therefore we used the His-tagged human Dpy-30 protein for Ni-NTA pulldown instead. As expected, both GST-RSP3245-316 and GST-RSP3269-316 were co-purified with His-Dpy-30 by Ni-NTA (FIGS. 7B and 7C). In contrast, the GST control was not co-purified (FIG. 7D).
(§3) The experiments were further conducted on smaller segments within a.a.#269-316. GST-RSP3280-316 and GST-RSP3280-308, but not GST-RSP3280-306, were also pulled down by His-Dpy-30 (FIG. 7E, left panel). […] To ensure that the co-purification occurs through the Dpy-30 domain rather than its flanking sequence, the same experiment was conducted with the Dpy-30 domain only (Dpy-3045-99, Wang et al., 2009). The results from the experiments using Dpy-30 domain alone or full-length Dpy-30 protein were similar (FIG. 7E, right panel). Based on the similar dimensions of the RIIa and Dpy-30 domains (FIG. 1), we tested if the Dpy-30 binding peptide is centered on the 18-a.a. helix at the a.a.#291-308 by mutating V300 in the middle of the region into P, a strategy used to study AHR (Gaillard et al., 2001; Carr et al., 1992). […] RSP3291-308.
For Ni-NTA (Qiagen) affinity co-purification, GST-tagged RSP3 constructs and His-tagged HDpy-30 constructs were co-transformed into BL21(DE3) cells. The recombinant proteins were induced using 1 mM IPTG overnight at 16° C. Following induction, the cell pellet from a 5-ml culture was resuspended in 750 μl lysis buffer and sonicated using Branson digital Sonifier (Emerson Industrial Automation). The sonicated mixtures were centrifuged at 4° C., 12,000 rpm for 25 min. The supernatant was incubated with 100 μl Ni-NTA for 1 hour at room temperature. The matrix was subsequently washed thrice and elution was carried out as instructed by the manufacturer.

In assay [3] the target is T4, Dpy-30 domain only (Dpy-3045-99) (Homo sapiens, UniProt Q9C005).
T4 construct: made in house; host or cells: E. coli BL21(DE3), co-expressed with the GST-RSP3 peptides
The assay is described as follows: Ni-NTA pulldown of GST-tagged RSP3 peptides with the Dpy-30 domain only. The assay is classed as binding. Here is the method:
as §3
For Ni-NTA (Qiagen) affinity co-purification, GST-tagged RSP3 constructs and His-tagged HDpy-30 constructs were co-transformed into BL21(DE3) cells. The recombinant proteins were induced using 1 mM IPTG overnight at 16° C. Following induction, the cell pellet from a 5-ml culture was resuspended in 750 μl lysis buffer and sonicated using Branson digital Sonifier (Emerson Industrial Automation). The sonicated mixtures were centrifuged at 4° C., 12,000 rpm for 25 min. The supernatant was incubated with 100 μl Ni-NTA for 1 hour at room temperature. […]

Another assay relates to RIIa domain from RSP7. The experiment in a line: Ni-NTA pulldown with His-tagged RIIa domain from RSP7. The note with it: co-expressed in bacteria. The assay is classed as binding, Chlamydomonas.
Source text: as §2
Based on the structural similarity, we tested for the cross-recognition of His-Dpy-30 and AHR (GST-RSP3g); and RSP7's RIIa and AHD (GST-RSP3280-308) by the described Ni-NTA pulldown assay. […] Thus Dpy-30 that has a deep pocket from an additional α-helix recognizes both AHR and AHD, whereas RSP7's RIIa, as PKA's RII, only binds RSP3's AHR(Gaillard et al., 2001). […]

T1 sequence (Q9C005 whole entry, the tested form may be a part): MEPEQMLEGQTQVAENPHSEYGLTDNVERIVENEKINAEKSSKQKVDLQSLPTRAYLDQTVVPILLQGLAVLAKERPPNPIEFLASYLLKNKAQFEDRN
T3 sequence (P00514 1-81): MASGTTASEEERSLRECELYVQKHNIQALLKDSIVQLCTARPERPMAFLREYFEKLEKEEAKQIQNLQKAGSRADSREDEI
T2 sequence (P12367 1-64 S2G limits assumed): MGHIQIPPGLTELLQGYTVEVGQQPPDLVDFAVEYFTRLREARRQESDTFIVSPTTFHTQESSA
T4 sequence (Q9C005 45-99): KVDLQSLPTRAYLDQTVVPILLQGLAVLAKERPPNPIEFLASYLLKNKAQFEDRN

In the case of “PMSDMGWGAVVKHTLADVLYHVETEVDGRRS (also: GST fusion) [E604K, GST-hAsh2593-623 with E604 mutated to K]”, in the assay with Dpy-30 [1] (GST-fused hAsh2 peptides, Ni-NTA pulldown, Coomassie-stained SDS-PAGE), the “co-purified with Dpy-30” value is recorded as “+”. For the same molecule, in the assay with Dpy-30 [1] (full-length His-Dpy-30, Ni-NTA, result in words), the “co-purification with His-Dpy-30” value is reported as “still pulled down substantially”. In addition, the “co-purification with His-RIIα D/D” value with RIIα D/D (a.a.#1-64) is recorded as “substantially enhanced the pulldown”. In the assay with RIα D/D (a.a.#1-81), the “co-purification with His-RIα D/D” value is listed as “not”.
Regarding “V300P: GST-tagged RSP3280-316 with V300 mutated into P (PWLKEQAIGYLARGVVARRVPDKLVEDAAAALAANRS; also: GST tag)”, the “co-purification / pulldown with His-Dpy-30” value in the assay with Dpy-30 [2] is listed as “abrogated the binding”. Besides, the “binding to the Dpy-30 domain” value in assay [3] is recorded as “abrogated the binding”.

B1: RSP396-180: GST-tagged RSP3 fragment a.a. 96-180 that harbors the RIIa-binding AHR at a.a.#161-178 (protein)
chain: HIDIQTDVYLEELTDTVPEADTSTQTDAFLDRPPTPLFVPQKTGTDAITQIENGDLFDFDFEVEPILEVLVGKVLEQGLMEVLEE
modifications: left off: a dimerising Fc or GST
As to B1, the “co-purification / pulldown with His-RIIa from RSP7” value was “co-purified” in the assay on RIIa domain from RSP7 and “most efficient” with RIIa domain from RSP7 (listed as GST-RSP390-180). Besides, in the assay with Dpy-30 [2], the “co-purification / pulldown with His-Dpy-30” value is recorded as “pulled down”. Further, in the assay with RIα D/D (a.a.#1-81), the “co-purification with His-RIα D/D” value is reported as “the lowest”.
